Experiments:
[1] = test system: St. epidermidis ATCC 13288; test: MIC of apolactoferrin on agar-plate medium; type: cell-based, Streptococcus epidermidis
From the text: (§1) Therefore, even though the lactoferrins have very weak antibacterial activity in vitro, it is questionable that they exert direct antibacterial activity against bacteria infecting mammals.
(§2) The minimum inhibitory concentration of apolactoferrin against
(§3) bacteria on the agar-plate medium.

[2] = test system: Bacillus subtilis ATCC 6633; test: MIC of apolactoferrin on agar-plate medium; type: cell-based
From the text: as §2, §3

[3] = test system: Citrobacter freundii 2; test: MIC of apolactoferrin on agar-plate medium; type: cell-based
From the text: as §2, §3

[4] = test system: Citrobacter freundii GN 346; test: MIC of apolactoferrin on agar-plate medium; type: cell-based
From the text: as §2, §3

[5] = test system: Enterobacter cloacae No 91; test: MIC of apolactoferrin on agar-plate medium; type: cell-based
From the text: as §2, §3

[6] = test system: Enterobacter feacalis 64; test: MIC of apolactoferrin on agar-plate medium; type: cell-based
From the text: as §2, §3

[7] = test system: Enterobacter feacalis 95-1; test: MIC of apolactoferrin on agar-plate medium; type: cell-based
From the text: as §2, §3

[8] = test system: Escherichia coli C11; test: MIC of apolactoferrin on agar-plate medium; type: cell-based
From the text: as §2, §3

[9] = test system: Escherichia coli NIHJ JC-2; test: MIC of apolactoferrin on agar-plate medium; type: cell-based
From the text: as §2, §3

[10] = test system: Escherichia coli No 35; test: MIC of apolactoferrin on agar-plate medium; type: cell-based
From the text: as §2, §3

[11] = test system: Klebsiella oxytoca 1006; test: MIC of apolactoferrin on agar-plate medium; type: cell-based
From the text: as §2, §3

[12] = test system: Klebsiella pneumoniae GN69; test: MIC of apolactoferrin on agar-plate medium; type: cell-based
From the text: as §2, §3

[13] = test system: Micrococcus lutens ATCC 9341; test: MIC of apolactoferrin on agar-plate medium; type: cell-based
From the text: as §2, §3

[14] = test system: Pr. inconstans GN 627; test: MIC of apolactoferrin on agar-plate medium; type: cell-based
From the text: as §2, §3

[15] = test system: Pr. inconstans IFO 12930; test: MIC of apolactoferrin on agar-plate medium; type: cell-based
From the text: as §2, §3

[16] = test system: Pr. morganii GN125; test: MIC of apolactoferrin on agar-plate medium; type: cell-based
From the text: as §2, §3

[17] = test system: Pr. morganii IFO 3848; test: MIC of apolactoferrin on agar-plate medium; type: cell-based
From the text: as §2, §3

[18] = test system: Pr. rettgeri GN624; test: MIC of apolactoferrin on agar-plate medium; type: cell-based
From the text: as §2, §3

[19] = test system: Pr. rettgeri IFO 13501; test: MIC of apolactoferrin on agar-plate medium; type: cell-based
From the text: as §2, §3

[20] = test system: Proteus mirabilis 1287; test: MIC of apolactoferrin on agar-plate medium; type: cell-based
From the text: as §2, §3

[21] = test system: Proteus mirabilis GN79; test: MIC of apolactoferrin on agar-plate medium; type: cell-based
From the text: as §2, §3

[22] = test system: Proteus vulgaris GN76; test: MIC of apolactoferrin on agar-plate medium; type: cell-based
From the text: as §2, §3

[23] = test system: Proteus vulgaris IFO 3851; test: MIC of apolactoferrin on agar-plate medium; type: cell-based
From the text: as §2, §3

[24] = test system: Pseudomonas aeruginosa E 7; test: MIC of apolactoferrin on agar-plate medium; type: cell-based
From the text: as §2, §3

[25] = test system: Salmonella paratyphi A; test: MIC of apolactoferrin on agar-plate medium; type: cell-based
From the text: as §2, §3

[26] = test system: Salmonella paratyphi B; test: MIC of apolactoferrin on agar-plate medium; type: cell-based
From the text: as §2, §3

[27] = test system: Salmonella typhi; test: MIC of apolactoferrin on agar-plate medium; type: cell-based
From the text: as §2, §3

[28] = test system: Serratia marcescens No 2; test: MIC of apolactoferrin on agar-plate medium; type: cell-based
From the text: as §2, §3

[29] = test system: Serratia marcescens No 78; test: MIC of apolactoferrin on agar-plate medium; type: cell-based
From the text: as §2, §3

[30] = test system: Shigella flexineri; test: MIC of apolactoferrin on agar-plate medium; type: cell-based
From the text: as §2, §3

[31] = test system: Shigella sonnei; test: MIC of apolactoferrin on agar-plate medium; type: cell-based
From the text: as §2, §3

[32] = test system: Staphylococcus aureus 209p; test: MIC of apolactoferrin on agar-plate medium; type: cell-based
From the text: as §2, §3

[33] = test system: Staphylococcus aureus 227; test: MIC of apolactoferrin on agar-plate medium; type: cell-based
From the text: as §2, §3

[34] = test system: Staphylococcus aureus Smith; test: MIC of apolactoferrin on agar-plate medium; type: cell-based
From the text: as §2, §3

[35] = test system: Vibrio cholerae 569B; test: MIC of apolactoferrin on agar-plate medium; type: cell-based
From the text: as §2, §3

[36] = test system: Kleb. pneumoniae 3K25; test: MIC of apolactoferrin on agar-plate medium; type: cell-based, Klebsiella pneumoniae
From the text: as §2, §3

[37] = test system: Kleb. pneumoniae ATCC 10031; test: MIC of apolactoferrin on agar-plate medium; type: cell-based, Klebsiella pneumoniae
From the text: as §2, §3

[38] = test system: Kleb. pneumoniae IFO 3512; test: MIC of apolactoferrin on agar-plate medium; type: cell-based, Klebsiella pneumoniae
From the text: as §2, §3

[39] = test system: Ser. marcescens IFO 12648; test: MIC of apolactoferrin on agar-plate medium; type: cell-based, Serratia marcescens
From the text: as §2, §3

[40] = test system: Pseu. aeruginosa IFO 3445; test: MIC of apolactoferrin on agar-plate medium; type: cell-based, Pseudomonas aeruginosa
From the text: as §2, §3

[41] = test system: Pseu. aeruginosa No. 11; test: MIC of apolactoferrin on agar-plate medium; type: cell-based, Pseudomonas aeruginosa
From the text: as §2, §3

[42] = test system: Pseu. aeruginosa No. 47; test: MIC of apolactoferrin on agar-plate medium; type: cell-based, Pseudomonas aeruginosa
From the text: as §2, §3

[43] = test system: Pseu. aeruginosa TMS 11; test: MIC of apolactoferrin on agar-plate medium; type: cell-based, Pseudomonas aeruginosa
From the text: as §2, §3

[44] = test system: most pathogenic bacteria; test: Antibacterial activity of apolactoferrin in vitro, most bacteria; type: cell-based; details: most of the bacteria
From the text: as §1, §2, §3

[45] = test system: bacteria; details: iron-free lactoferrin; previous studies; cited from earlier work

B1: apolactoferrin: iron-free lactoferrin, from bovine milk (protein, UniProt P24627 20-708, looked up)
Lactotransferrin: APRKNVRWCTISQPEWFKCRRWQWRMKKLGAPSITCVRRAFALECIRAIAEKKADAVTLDGGMVFEAGRDPYKLRPVAAEIYGTKESPQTHYYAVAVVKKGSNFQLDQLQGRKSCHTGLGRSAGWIIPMGILRPYLSWTESLEPLQGAVAKFFSASCVPCIDRQAYPNLCQLCKGEGENQCACSSREPYFGYSGAFKCLQDGAGDVAFVKETTVFENLPEKADRDQYELLCLNNSRAPVDAFKECHLAQVPSHAVVARSVDGKEDLIWKLLSKAQEKFGKNKSRSFQLFGSPPGQRDLLFKDSALGFLRIPSKVDSALYLGSRYLTTLKNLRETAEEVKARYTRVVWCAVGPEEQKKCQQWSQQSGQNVTCATASTTDDCIVLVLKGEADALNLDGGYIYTAGKCGLVPVLAENRKSSKHSSLDCVLRPTEGYLAVAVVKKANEGLTWNSLKDKKSCHTAVDRTAGWNIPMGLIVNQTGSCAFDEFFSQSCAPGADPKSRLCALCAGDDQGLDKCVPNSKEKYYGYTGAFRCLAEDVGDVAFVKNDTVWENTNGESTADWAKNLNREDFRLLCLDGTRKPVTEAQSCHLAVAPNHAVVSRSDRAAHVKQVLLHQQALFGKNGKNCPDKFCLFKSETKNLLFNDNTECLAKLGGRPTYEEYLGTEYVTAIANLKKCSTSPLLEACAFLTR
modifications: iron-free
notes: iron-free lactoferrin, from bovine milk
Minimum Inhibitory Conc. [1]: 800 µg/mL | Minimum Inhibitory Conc. [2]: 3,200 μg/ml | Minimum Inhibitory Conc. [3]: > 6,400 μg/ml | Minimum Inhibitory Conc. [4]: > 6,400 μg/ml | Minimum Inhibitory Conc. [5]: > 6,400 μg/ml | Minimum Inhibitory Conc. [6]: 3,200 μg/ml | Minimum Inhibitory Conc. [7]: 3,200 μg/ml | Minimum Inhibitory Conc. [8]: > 6,400 μg/ml | Minimum Inhibitory Conc. [9]: 3,200 μg/ml | Minimum Inhibitory Conc. [10]: 1,600 μg/ml | Minimum Inhibitory Conc. [11]: > 6,400 μg/ml | Minimum Inhibitory Conc. [12]: > 6,400 μg/ml | Minimum Inhibitory Conc. [13]: > 6,400 μg/ml | Minimum Inhibitory Conc. [14]: > 6,400 μg/ml | Minimum Inhibitory Conc. [15]: > 6,400 μg/ml | Minimum Inhibitory Conc. [16]: 3,200 μg/ml | Minimum Inhibitory Conc. [17]: > 6,400 μg/ml | Minimum Inhibitory Conc. [18]: 6,400 μg/ml | Minimum Inhibitory Conc. [19]: 3,200 μg/ml | Minimum Inhibitory Conc. [20]: 3,200 μg/ml | Minimum Inhibitory Conc. [21]: > 6,400 μg/ml | Minimum Inhibitory Conc. [22]: > 6,400 μg/ml | Minimum Inhibitory Conc. [23]: > 6,400 μg/ml | Minimum Inhibitory Conc. [24]: > 6,400 μg/ml | Minimum Inhibitory Conc. [25]: > 6,400 μg/ml | Minimum Inhibitory Conc. [26]: > 6,400 μg/ml | Minimum Inhibitory Conc. [27]: > 6,400 μg/ml | Minimum Inhibitory Conc. [28]: > 6,400 μg/ml | Minimum Inhibitory Conc. [29]: > 6,400 μg/ml | Minimum Inhibitory Conc. [30]: > 6,400 μg/ml | Minimum Inhibitory Conc. [31]: > 6,400 μg/ml | Minimum Inhibitory Conc. [32]: > 6,400 μg/ml | Minimum Inhibitory Conc. [33]: > 6,400 μg/ml | Minimum Inhibitory Conc. [34]: > 6,400 μg/ml | Minimum Inhibitory Conc. [35]: 3,200 μg/ml | Minimum Inhibitory Conc. [36]: > 6,400 μg/ml | Minimum Inhibitory Conc. [37]: > 6,400 μg/ml | Minimum Inhibitory Conc. [38]: > 6,400 μg/ml | Minimum Inhibitory Conc. [39]: > 6,400 μg/ml | Minimum Inhibitory Conc. [40]: > 6,400 μg/ml | Minimum Inhibitory Conc. [41]: > 6,400 μg/ml | Minimum Inhibitory Conc. [42]: > 6,400 μg/ml | Minimum Inhibitory Conc. [43]: > 6,400 μg/ml | minimum inhibitory concentrations [44]: more than 6,400 μg/ml | antibacterial activity by degree of iron saturation [45]: the most potent
